The nanobody polyreactivity screen of Harvey et al. (2022)

Assay: yeast display, Sf9 membrane polyspecificity reagent, FACS + sequencing; frameworks hold sequencing errors
In short: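 A synthetic nanobody library was expressed on Saccharomyces cerevisiae BJ5465 by galactose induction for 36–48 hours. The library was stained for 1 hour at 4 °C with 10% biotinylated, detergent-solubilized Sf9 membrane reagent and enriched with streptavidin microbeads before FACS. Low and high (top ~1%) gates were set on anti-HA fluorescence for expression and streptavidin fluorescence for reagent binding, and each polyreactivity label reflects the gate of origin.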

| Sequence | polyreactivity (PSR sort gate) |
| --- | --- |
| QVQLVESAGGLVQAGGSLRLSCAASGLTYVPNAMGWYRQAPGKEREIVAAICNNGGRTYYADSVKGRFTISRDNAKNTVYLEMNSLKPEDTAVYYCAKYLSPGERHSYDYWGQGTQVTVSS | high polyreactivity |
| QVQLVESAGGLVQAGGSLRLSCAASGNTFDPNAMGWYRQAPGKEREFVAAISTIGSSTYYADSVKGRFTISRDNAKYTVYLQMNSLNPEVTAVYYCAKGIYVVYGIDDYWGQGTQVTLSS | low polyreactivity |
| QVQLVESAGGLVQAGGSLRLSCAASGRIFGQYTMGWYRQAPGKERELDAAISSSGGRTYYADSVKGRFTISRDNAKNTVYLQMNSLKPEDTAVYYCAARDRPSPYYYWGQGTQVTVSS | high polyreactivity |
| QVQLVESAGGLVQAGGSLRLSCAASGRIFWLYAMGWYRQAPGKERELVASISQSGANTYYADSVKGRFTISRDNSKNNVYLQMNCLKPEYTSVDYCSSNRYDSYYFWVGYWGQGSQVTVSS | low polyreactivity |
| QVQLVESAGGLVQAGGSLRLSCAASGRILPSNAMGWYRQAPGKERELVAGITSGGSTDYADSVKGRFTISRDNAKNTVYLQMNSLKPEDTGVFYCAADSRRYGVRFDYWGQGTQVTVSS | low polyreactivity |
| QVQLVESAGGLVQAGGSLRLSCAASGRTFGWYAMGWYRQAPGKERELVAAITSSDDSTYYADSVKGRFTISRDNAKNTVYLQMNSLKPEDTEVYYCNKVKYFARSAYGYWGLGTQVTVSS | low polyreactivity |
| QVQLVESAGGLVQAGGSLRLSCAASGRTFHWYTMGWYRQAPGKEREFVAGINWSGARTYYADSVKGRFTISRDNAKNTVYLQMNSLKPEDTAVYYCAKRLWGIDFDYWGQGTQVTVSS | high polyreactivity |
| QVQLVESAGGLVQAGGSLRLSCAASGRTFWSYAMGWSRQAPGKERELVAAINSGGSTYYADSVKGRFTISRDNAKITVYLQRNSLKPEDTAVYYCDADTWYGFDWGVGTQVTVSS | high polyreactivity |
| QVQLVESAGGLVQAGGSLRLSCAASGRTFYSYAMGWSRQAPGKEREFVAAITKSGGSTYYADSVKGRFTISRDNAKNTVYLQMNSLKPEDTAVYYCAAGLVATFSRPGRASYRYNYWGQGTQVTVSS | high polyreactivity |
| QVQLVESAGGLVQAGGSLRLSCAASGRTITFNTMGLYRQAPGKERELVAGIDRGGSTNYADSVKGRFTISRDNAKNTVYLQMNSLKPEDTAVYYCAADPPGYVYGKRYYWGQGTQVTVSS | high polyreactivity |
| QVQLVESAGGLVQAGGSLRLSCAASGSIFNVYDMGWYRQAPGKERELVAAITWSGGRTYYADSVKGRFTISRDNAKNTVYLQMNSLKPEDTAVSSCSARRWWVKSWRRFDYWGQGTQVTVSS | high polyreactivity |
| QVQLVESAGGLVQAGGSLRLSCAASGSIFSDNPMGWYIQAPGKERALVASITNSGSTNYADSVKGRFTISRDNAKNTVYLQMNILKPEDTAVYYCAFSFLYTYDNWGQGTQVTVSS | low polyreactivity |
| QVQLVESAGGLVQAGGSLRLSCAASGSILDRYAMGWDRQAPGKERELVAAITYSSGRTYYADSVKGRFTISRDNAKNTVYLQMNSLKPEDTAVYYCAARPFKRSNGGGQYYYWGQGTQLTVSS | high polyreactivity |
| QVQLVESAGGLVQAGGSLRLSCAASGSTFAIKAMGWYRQAPGKERELVAAISSSGSTNYADSVKGRFTISRDNAKNTVYLQMNSLKQEDTAVYYCAADRVWGTPQAYVPSHFDYWGQGTQVTVSS | low polyreactivity |
| QVQLVESAGGLVQAGGSLRLSCAASGSTFGKYAMGWDRHAPGKERELVAAISWSGGSTYYADSVKGRFTISRDNAKNTVYLQMNSLKPEDTAVYYCTVYRYDGDYWGQGTQVTVSS | high polyreactivity |
| QVQLVESAGGLVQAGGSLRLSCAASGSTFQWYAMGWSRQAPGKERELVAAIDSDGGTNYADSVKGRFTISRDNAKNTVYLQMNSLKPEDTAVYYCAVKPFYYGSEFDYWGQGTQVTVSS | low polyreactivity |
| QVQLVESAGGLVQAGGSLRLSCAASGSTFTGYAMGWYRQAPGKERELVAAITYSGVRTNYADSVKGRFTISRDNANNTVYLQMNSLKPEDTAVYYCNAAVVYVKMDYWGQGTQVTVSS | low polyreactivity |
| QVQLVESAGGLVQAGGSLRLSCAASGSTFTSYAMGWYRQAPGKERELVDAITRNGGTTYYADSVKGRFTISRDNAKNTVYLQMNSLKPEDTAVYYCNAPHYYYITSDRRFDYWGQGTQVTVSS | low polyreactivity |
| QVQLVESAGGLVQAGGSLRLSCAASGSTFYTYTMGWYRQAPGKERELVAAISSSGGDTYYADSVKGRFTISRDNAKNTVYLQMNSLKPEDTAVYYCAAAGPYGAVWRNDYWGQGTQVTVSS | low polyreactivity |
| QVQLVESAGGLVQAGGSLRLSCAASGSTLYQYTMGWYRQAPGKERELVAAISRSGGRTYYADSVKGRFTISRDNAKNTVYLQMNSLKPEDTAVYYCAVDPGAYDSWGQGTQVTVSS | high polyreactivity |
| QVQLVESAGGLVQAGGSLRLSCAASGSTQVIYHMGWNRQAPGNERYIVAAITYGGGRTYYADSVKGRFTISSDNAKNTVYLQMNSLKPEDTAYYYCAAYSYYYTWNPGYWGQGTQVTVSS | high polyreactivity |
| QVQLVESAGGLVQAGGSLRLSCAASGYIFYFYAMGWYRQAPGKERELVAAITSVGSTKYADSVKGRFTISRDNAKNTVYLQMNSLKPEDTAVYYCAARSWSGYGLYNYWGHGTQVTVSS | high polyreactivity |

| Sequence | polyreactivity (PSR sort gate) |
| --- | --- |
| QVQLVESAGGLVQAGGSLRLSCAASGYTFDFYAMGWYRQAPGKERELVAAISKNDGTTYYADSVKGRFTISRDNAKNTVYLQMNSLKPEDTAVYYCAAESGYPVYTYVSSGDYWGQGTQVTVSS | low polyreactivity |
| QVQLVESAGGLVQAGGSLRLSCAASGYTFYRNAMGCYRQAPGKERELVAAISWRGGSTYYADSVKGRFTISRDNAKNTVYLQMNSLKPEDTAVYYCAAYFSYGGSTTGEEYWGQGTQVTVSS | high polyreactivity |
| QVQLVESAGGLVQAGGSLRLSCAATGFTFYTYAMGWYRQAPGKERELVADISSGGSTNYADSVKGRFTISRDNAKNTVYLQMNSLKPEDTAVYYSSAVYYFLDWYDYWGQGTQVNVSS | low polyreactivity |
| QVQLVESAGGLVQAGGSLRLSCAATGSTVDRNGMGWYRQAPGKERELVASISGRGGSTYYADSVKGRFTISRDHAKNTVYLQMNRLKPEDTAVYYCAVRYGFFSRYNSWGQGTQVTVSS | high polyreactivity |
| QVQLVESAGGLVQAGGSLRLSCAAYGSIIKRNAMGWYRQAPRKERQLVATSSSGDGSTRYADSVKWRFTISRDNAKNTVYLQMNSLKPEDTAVYYCALDFTYTYYRWKNPYRIGHDYWGHGTQVTVSS | low polyreactivity |
| QVQLVESAGGLVQAGGSLRLSCAPSGRIFGRYAMGWYRHAPGKERELVAAISFNGGSTSYADSVNGRFTISRDNAKNTVYLQMNTLKTEYTAVYYCAAKYRGFNYWGQGTQVTVSS | high polyreactivity |
| QVQLVESAGGLVQAGGSLRLSCAPSGRIFLTNAMGWYRQAPGKERELVAAITSGGSTYYADSVKGRFTISRDNAKNTVYLQMNSLKPEDTAVYYCNADTDRYWPYEYDYWGQGTQVTVSS | low polyreactivity |
| QVQLVESAGGLVQAGGSLRLSCDASGRIFTIYAMGWYSQAPGKERELVAAIRSSGDRTYYADSVKGRFTISRDNAKNTVYLQMNSQKPEDTAVYYCAARTRGGYYWGQGTQVTVSS | high polyreactivity |
| QVQLVESAGGLVQAGGSLRLSCDASGSILDSNAMGWYRQAHGKERELVAAITSGGSTYYADSVKGRFTISRDNAKNTVYLQMNSLKPEDTAVYYCAAVDIYKYYQYYAFPYYRYDSWGQGTQVTVSS | low polyreactivity |
| QVQLVESAGGLVQAGGSLRLSCDASGSTFVINAMGWYRPAPGKERELVAAISKSGGRTYYADSVKGRFTISRDNAKNTVYLQMNSLKPEDTAVYYCAAVSQRTRYGYWGQGTQVTVSS | high polyreactivity |
| QVQLVESAGGLVQAGGSLRLSCHASGLTVRTYDMGWYRQEPGKERELVAAITTGGSTYYADSVKGRFSISRDNAKNTVYLQMNSLKPEDTAVYYCAADFIRYINRLLYDFWGQGTQVTVSS | low polyreactivity |
| QVQLVESAGGLVQAGGSLRLSGSASGIIIASNGMGWYRQPPGKERELVAAISSGGSTNYADSVKGRFTISRDNAKNTVYLQMNSLKPEDTAVYYCADDRWYREYDYWGQGTQVTVSS | low polyreactivity |
| QVQLVESAGGLVQAGGSLSIICAASGFTFSPYTMGWYRKAPGKERELVAAINRRGVSTYYADSVKGRFTISRDNEKNTVYLQMNSLKPEDTAVYYCAAEWYYQYSIYRYGYWGQGTQVTVSS | low polyreactivity |
| QVQLVESAGGLVQAGGSLSLICAASGSTFVVNALGWYRQAPGKERELVAAITTSGGSTYYADSVKGRFTISRDNAKNTVYLQMNSLKPEDTAVYYCAAETWGYYGYGVDYDYWGQGTQVTVSS | high polyreactivity |
| QVQLVESAGGLVQAGGSLSLSCAANGFTFTYYTMGWYRQAPGKERELVAAITENGGSTYYADSVKGRFTISRDNAKNTVYLQMNSLKPEDTAVYYCNARVWDYGGHGYDYWGQGTQVTVSS | low polyreactivity |
| QVQLVESAGGLVQAGGSLSLSCAASGRIFNLYAMGWYRKAPGKERELVAAIRGRGTSTYYADSVKGRFTISRDNAKNTVYLQMNSLKPEDTAVYYCAREGGYGPTLQDTSRYEYWGQGTQVTVSS | low polyreactivity |
| QVQLVESAGGLVQAGGSLSLSCAASGRTFVIYAMGSDRQAPGKERELVAGIDSGTSTYADSVKGRFTISRDNAKNTVYLQMNSLKPEDTAVYYCAADFAPDGAGWYIPGDYDSWGQGTQVTVSS | low polyreactivity |
| QVQLVESAGGLVQAGGSLSLSCAASGRTFVIYAMGWYRKAPGKERELVAGIDSGTSTYADSVKGRFTISRDNAKNTVYLQMNSLKPEDTAVYYCAADFAPDGAGWYIPGDYDSWGQGTQVTVSS | low polyreactivity |
| QVQLVESAGGLVQAGGSLSLSCAASGSTFAGYVMGWYRQAPGKERELVAAISRSGGSTYYADSVKGRFTISRDNAKNTVYLQMNSLKPEDTAVYYCAARNSPGLPGDYWGQGTQVTVSS | high polyreactivity |
| QVQLVESAGGLVQAGVSLRLSCAASGRTFVGNAMGGYRQAPGKERELVADITWSGDITYYADSVKGRFTIARDTAKNTVYLQMISLKPEDTAVYYCAADYHRRLTDYDYWGQGTQVTVSS | low polyreactivity |
| QVQLVESAGGLVQAVGSLRLSCAASGRICGIYAMGWYRQAPGKERELVAAISFIGGRTYYADSVKGRFTISRDNAKNTVYLQMNSLKPEDTAVYDCAARTVPSSRREYWGQGTQVTVSS | high polyreactivity |
